What was measured:
[1] = target: GluA2 (modified calcium-permeable rat GluA2flip subunit with Q586 at the Q/R-site, GluA2*) (rat); assay: cryo-EM structure
[2] = target: GluA2 (modified calcium-permeable rat GluA2flip subunit with Q586 at the Q/R-site, GluA2*) (rat); assay: cryo-EM structure; remark: listed apart in the source

stoichiometry N [1] | stoichiometry N (γ5 per GluA2 tetramer) [2] | Molecule
4 |  | GluA2 (modified calcium-permeable rat GluA2flip subunit with Q586 at the Q/R-site, GluA2*) (receptor)
 | 2 | type II TARP γ5 (C-terminally truncated mouse subunit, Cacng5, residues Ser2-Glu207) (domain or fragment) SACGRKALTLLSSVFAVCGLGLLGIAVSTDYWLYLEEGIILPQNQSTEVKMSLHSGLWRVCFLAGEERGRCFTIEYVMPMNSQMTSESTVNVLKMIRSATPFPLVSLFFMFIGFILSNIGHIRPHRTILAFVSGIFFILSGLSLVVGLVLYISSINDEMLNRTKDAETYFNYKYGWSFAFAAISFLLTESAGVMSVYLFMKRYTAE

From paper PMC8642297
